# Data reported in the supplement of paper PMC10567573.
# B1: FBF1 (parent)
# chain: YQRPQDSEDMWGDEDFTFGAYQPT
# Variants of: B1
# Assay: protein stability index of a GFP-peptide fusion (GPS, HEK-293T) (PSI 1-6); higher = more stable
# Conditions: c terminus: a fixed tail appended
# 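Note: lentivirally expressed fusions sorted by FACS into six bins by GFP to DsRed ratio, PSI derived from sequencing read proportions per bin multiplied by bin number.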
row,Variant,protein stability index
1,YQRPQDSEDMWGDEDFPFGAYQPT,2.93
2,YQRPQDSEDMWGDEDFRFGAYQPT,2.68
3,YQRPQDSEDMWGDEDFMFGAYQPT,2.59
4,YQRPQDSEDMWGDEDFAFGAYQPT,3.46
5,YQRPQDSEDMWGDEDFEFGAYQPT,3.04
6,YQRPQDSEDMWGDEDFGFGAYQPT,3.01
7,YQRPQDSEDMWGDEDFNFGAYQPT,3.04
8,YQRPQDSEDMWGDEDFFFGAYQPT,2.53
9,YQRPQDSEDMWGDEDFQFGAYQPT,3.44
10,YQRPQDSEDMWGDEDFHFGAYQPT,2.86
11,YQRPQDSEDMWGDEDFKFGAYQPT,2.68
12,YQRPQDSEDMWGDEDFYFGAYQPT,2.1
13,YQRPQDSEDMWGDEDFIFGAYQPT,2.36
14,YQRPQDSEDMWGDEDFWFGAYQPT,1.84
15,YQRPQDSEDMWGDEDFDFGAYQPT,3.37
16,YQRPQDSEDMWGDEDFVFGAYQPT,3.07
17,YQRPQDSEDMWGDEDFLFGAYQPT,2.31
18,YQRPQDSEDMWGDEDFSFGAYQPT,2.65
19,YQRPQDSEDMWGDEDFCFGAYQPT,2.65
20,YQRPQDSEDMWGDEDFTFEAYQPT,3.76
21,YQRPQDSEDMWGDEDFTFNAYQPT,3.1
22,YQRPQDSEDMWGDEDFTFAAYQPT,2.59
23,YQRPQDSEDMWGDEDFTFHAYQPT,2.67
24,YQRPQDSEDMWGDEDFTFSAYQPT,3.18

row,Variant,protein stability index
1,YQRPQDSEDMWGDEDFTFQAYQPT,2.78
2,YQRPQDSEDMWGDEDFTFMAYQPT,2.88
3,YQRPQDSEDMWGDEDFTFWAYQPT,1.84
4,YQRPQDSEDMWGDEDFTFPAYQPT,2.77
5,YQRPQDSEDMWGDEDFTFDAYQPT,3.49
6,YQRPQDSEDMWGDEDFTFFAYQPT,2.56
7,YQRPQDSEDMWGDEDFTFTAYQPT,2.6
8,YQRPQDSEDMWGDEDFTFRAYQPT,2.47
9,YQRPQDSEDMWGDEDFTFIAYQPT,2.64
10,YQRPQDSEDMWGDEDFTFLAYQPT,2.33
11,YQRPQDSEDMWGDEDFTFCAYQPT,2.53
12,YQRPQDSEDMWGDEDFTFYAYQPT,2.35
13,YQRPQDSEDMWGDEDFTFKAYQPT,2.51
14,YQRPQDSEDMWGDEDFTFVAYQPT,2.8
15,YQRPQDSEDMWGDEDFTFGAYQFT,2.74
16,YQRPQDSEDMWGDEDFTFGAYQKT,2.68
17,YQRPQDSEDMWGDEDFTFGAYQET,3.36
18,YQRPQDSEDMWGDEDFTFGAYQGT,3.19
19,YQRPQDSEDMWGDEDFTFGAYQVT,2.4
20,YQRPQDSEDMWGDEDFTFGAYQHT,3.32
21,YQRPQDSEDMWGDEDFTFGAYQCT,2.96
22,YQRPQDSEDMWGDEDFTFGAYQTT,2.87
23,YQRPQDSEDMWGDEDFTFGAYQAT,2.47
24,YQRPQDSEDMWGDEDFTFGAYQWT,2.19

row,Variant,protein stability index
1,YQRPQDSEDMWGDEDFTFGAYQNT,3.1
2,YQRPQDSEDMWGDEDFTFGAYQYT,2.85
3,YQRPQDSEDMWGDEDFTFGAYQQT,3.06
4,YQRPQDSEDMWGDEDFTFGAYQIT,2.64
5,YQRPQDSEDMWGDEDFTFGAYQMT,2.26
6,YQRPQDSEDMWGDEDFTFGAYQST,2.61
7,YQRPQDSEDMWGDEDFTFGAYQRT,2.67
8,YQRPQDSEDMWGDEDFTFGAYQDT,3.06
9,YQRPQDSEDMWGDEDFTFGAYQLT,2.87
10,YQRPQDSEDMWGDEDFTFGAEQPT,3.75
11,YQRPQDSEDMWGDEDFTFGADQPT,3.73
12,YQRPQDSEDMWGDEDFTFGARQPT,3.06
13,YQRPQDSEDMWGDEDFTFGAMQPT,2.78
14,YQRPQDSEDMWGDEDFTFGALQPT,3.35
15,YQRPQDSEDMWGDEDFTFGAPQPT,3.56
16,YQRPQDSEDMWGDEDFTFGAGQPT,3.46
17,YQRPQDSEDMWGDEDFTFGAKQPT,3.44
18,YQRPQDSEDMWGDEDFTFGASQPT,3.51
19,YQRPQDSEDMWGDEDFTFGACQPT,3.17
20,YQRPQDSEDMWGDEDFTFGAIQPT,3.16
21,YQRPQDSEDMWGDEDFTFGAVQPT,2.92
22,YQRPQDSEDMWGDEDFTFGAQQPT,3.39
23,YQRPQDSEDMWGDEDFTFGATQPT,3.1
24,YQRPQDSEDMWGDEDFTFGAFQPT,2.98

row,Variant,protein stability index
1,YQRPQDSEDMWGDEDFTFGAWQPT,2.04
2,YQRPQDSEDMWGDEDFTFGAAQPT,3.51
3,YQRPQDSEDMWGDEDFTFGAHQPT,3.07
4,YQRPQDSEDMWGDEDFTFGANQPT,3.51
5,YQRPQDSEDMWGDVDFTFGAYQPT,2.36
6,YQRPQDSEDMWGDWDFTFGAYQPT,2.21
7,YQRPQDSEDMWGDSDFTFGAYQPT,2.43
8,YQRPQDSEDMWGDTDFTFGAYQPT,2.15
9,YQRPQDSEDMWGDYDFTFGAYQPT,2.27
10,YQRPQDSEDMWGDEDFTNGAYQPT,3.93
11,YQRPQDSEDMWGDEDFTAGAYQPT,3.43
12,YQRPQDSEDMWGDEDFTLGAYQPT,2.65
13,YQRPQDSEDMWGDEDFTWGAYQPT,2.53
14,YQRPQDSEDMWGDEDFTPGAYQPT,3.62
15,YQRPQDSEDMWGDEDFTHGAYQPT,3.04
16,YQRPQDSEDMWGDEDFTCGAYQPT,3.19
17,YQRPQDSEDMWGDEDFTIGAYQPT,3.06
18,YQRPQDSEDMWGDEDFTSGAYQPT,3.98
19,YQRPQDSEDMWGDEDFTMGAYQPT,3.25
20,YQRPQDSEDMWGDEDFTYGAYQPT,3.02
21,YQRPQDSEDMWGDEDFTEGAYQPT,3.62
22,YQRPQDSEDMWGDEDFTVGAYQPT,3.8
23,YQRPQDSEDMWGDEDFTDGAYQPT,3.9
24,YQRPQDSEDMWGDEDFTRGAYQPT,3.61

row,Variant,protein stability index
1,YQRPQDSEDMWGDEDFTQGAYQPT,3.35
2,YQRPQDSEDMWGDEDFTGGAYQPT,3.6
3,YQRPQDSEDMWGDEDFTTGAYQPT,3.77
4,YQRPQDSEDMWGDEDFTKGAYQPT,3.6
5,YQRPQDSEDMWGDEDFTFGMYQPT,2.62
6,YQRPQDSEDMWGDEDFTFGQYQPT,2.97
7,YQRPQDSEDMWGDEDFTFGCYQPT,2.18
8,YQRPQDSEDMWGDEDFTFGEYQPT,3.29
9,YQRPQDSEDMWGDEDFTFGHYQPT,2.95
10,YQRPQDSEDMWGDEDFTFGKYQPT,2.94
11,YQRPQDSEDMWGDEDFTFGGYQPT,2.91
12,YQRPQDSEDMWGDEDFTFGYYQPT,2.79
13,YQRPQDSEDMWGDEDFTFGWYQPT,2.04
14,YQRPQDSEDMWGDEDFTFGDYQPT,3.02
15,YQRPQDSEDMWGDEDFTFGNYQPT,2.9
16,YQRPQDSEDMWGDEDFTFGFYQPT,2.38
17,YQRPQDSEDMWGDEDFTFGIYQPT,2.11
18,YQRPQDSEDMWGDEDFTFGRYQPT,2.18
19,YQRPQDSEDMWGDEDFTFGTYQPT,3.05
20,YQRPQDSEDMWGDEDFTFGPYQPT,2.92
21,YQRPQDSEDMWGDEDFTFGSYQPT,2.69
22,YQRPQDSEDMWGDEDFTFGLYQPT,2.76
23,YQRPQDSEDMWGDEDFTFGVYQPT,2.72
24,YQRPQDSEDMWGDEAFTFGAYQPT,2.31

row,Variant,protein stability index
1,YQRPQDSEDMWGDEIFTFGAYQPT,2.11
2,YQRPQDSEDMWGDECFTFGAYQPT,1.77
3,YQRPQDSEDMWGDERFTFGAYQPT,2.15
4,YQRPQDSEDMWGDEQFTFGAYQPT,2.41
5,YQRPQDSEDMWGDEHFTFGAYQPT,2.05
6,YQRPQDSEDMWGDETFTFGAYQPT,2.43
7,YQRPQDSEDMWGDELFTFGAYQPT,2.04
8,YQRPQDSEDMWGDENFTFGAYQPT,2.13
9,YQRPQDSEDMWGDEYFTFGAYQPT,2.23
10,YQRPQDSEDMWGDEEFTFGAYQPT,2.75
11,YQRPQDSEDMWGDEFFTFGAYQPT,1.52
12,YQRPQDSEDMWGDEMFTFGAYQPT,1.9
13,YQRPQDSEDMWGDEWFTFGAYQPT,1.78
14,YQRPQDSEDMWGDEPFTFGAYQPT,2.45
15,YQRPQDSEDMWGDESFTFGAYQPT,2.16
16,YQRPQDSEDMWGDEKFTFGAYQPT,1.73
17,YQRPQDSEDMWGDEGFTFGAYQPT,2.13
18,YQRPQDSEDMWGDEVFTFGAYQPT,1.86
19,YQRPQDSEDMWGDEDFTFGAYCPT,2.6
20,YQRPQDSEDMWGDEDFTFGAYFPT,2.38
21,YQRPQDSEDMWGDEDFTFGAYNPT,2.57
22,YQRPQDSEDMWGDEDFTFGAYSPT,3.03
23,YQRPQDSEDMWGDEDFTFGAYPPT,3.19
24,YQRPQDSEDMWGDEDFTFGAYKPT,1.95

row,Variant,protein stability index
1,YQRPQDSEDMWGDEDFTFGAYRPT,2.65
2,YQRPQDSEDMWGDEDFTFGAYYPT,3.22
3,YQRPQDSEDMWGDEDFTFGAYVPT,2.37
4,YQRPQDSEDMWGDEDFTFGAYTPT,2.28
5,YQRPQDSEDMWGDEDFTFGAYGPT,2.86
6,YQRPQDSEDMWGDEDFTFGAYEPT,3.19
7,YQRPQDSEDMWGDEDFTFGAYIPT,2.45
8,YQRPQDSEDMWGDEDFTFGAYMPT,2.22
9,YQRPQDSEDMWGDEDFTFGAYLPT,2.77
10,YQRPQDSEDMWGDEDFTFGAYDPT,3.06
11,YQRPQDSEDMWGDEDFTFGAYWPT,1.94
12,YQRPQDSEDMWGDEDFTFGAYHPT,2.43
13,YQRPQDSEDMWGDEDFTFGAYAPT,2.77
14,YQRPQDSEDMWGDEDFTFGAYQPE,2.58
15,YQRPQDSEDMWGDEDFTFGAYQPH,2.27
16,YQRPQDSEDMWGDEDFTFGAYQPD,2.88
17,YQRPQDSEDMWGDEDFTFGAYQPM,2.52
18,YQRPQDSEDMWGDEDFTFGAYQPL,2.23
19,YQRPQDSEDMWGDEDFTFGAYQPK,3.02
20,YQRPQDSEDMWGDEDFTFGAYQPA,2.79
21,YQRPQDSEDMWGDEDFTFGAYQPG,3.25
22,YQRPQDSEDMWGDEDFTFGAYQPN,3.02
23,YQRPQDSEDMWGDEDFTFGAYQPF,2.29
24,YQRPQDSEDMWGDEDFTFGAYQPC,2.83

row,Variant,protein stability index
1,YQRPQDSEDMWGDEDFTFGAYQPI,2.24
2,YQRPQDSEDMWGDEDHTFGAYQPT,3
3,YQRPQDSEDMWGDEDMTFGAYQPT,3.17
4,YQRPQDSEDMWGDEDWTFGAYQPT,2.73
5,YQRPQDSEDMWGDEDLTFGAYQPT,2.71
6,YQRPQDSEDMWGDEDGTFGAYQPT,3.23
7,YQRPQDSEDMWGDEDRTFGAYQPT,2.73
8,YQRPQDSEDMWGDEDNTFGAYQPT,3.61
9,YQRPQDSEDMWGDEDKTFGAYQPT,2.87
10,YQRPQDSEDMWGDEDVTFGAYQPT,2.88
11,YQRPQDSEDMWGDEDETFGAYQPT,3.73
12,YQRPQDSEDMWGDEDCTFGAYQPT,2.85
13,YQRPQDSEDMWGDEDQTFGAYQPT,3.4
14,YQRPQDSEDMWGDEDDTFGAYQPT,3.48
15,YQRPQDSEDMWGDEDPTFGAYQPT,2.71
16,YQRPQDSEDMWGDEDITFGAYQPT,3.14
17,YQRPQDSEDMWGDEDYTFGAYQPT,2.83
18,YQRPQDSEDMWGDEDSTFGAYQPT,3.29
19,YQRPQDSEDMWGDEDTTFGAYQPT,2.8
20,YQRPQDSEDMWGDEDATFGAYQPT,2.9
